The values that follow come from patent publication CN116496403A (ZEDA BIOMEDICAL CO LTD, dated 2023).

“And” between values parts separate entries of the source, which are not always exact repeats. Equal entries are not always repeated.

Experiment [1] concerns the target PD-L1 on PD-L1 aAPC/CHO-K1 cells (UniProt Q9NZQ7 19-290). Briefly: cell-based or functional assay.
A further experiment has as its target IGF1R on BxPC3 cells (human, UniProt P08069 31-1367). Briefly: cell-based or functional assay.
Experiment [2] deals with T1, IGF1R-ECD-His蛋白 (UniProt P08069 31-935).
T1 construct: extracellular domain; Expressed in HEK-293E cells; also called IGF1R抗原
T1 sequence (P08069 31-935): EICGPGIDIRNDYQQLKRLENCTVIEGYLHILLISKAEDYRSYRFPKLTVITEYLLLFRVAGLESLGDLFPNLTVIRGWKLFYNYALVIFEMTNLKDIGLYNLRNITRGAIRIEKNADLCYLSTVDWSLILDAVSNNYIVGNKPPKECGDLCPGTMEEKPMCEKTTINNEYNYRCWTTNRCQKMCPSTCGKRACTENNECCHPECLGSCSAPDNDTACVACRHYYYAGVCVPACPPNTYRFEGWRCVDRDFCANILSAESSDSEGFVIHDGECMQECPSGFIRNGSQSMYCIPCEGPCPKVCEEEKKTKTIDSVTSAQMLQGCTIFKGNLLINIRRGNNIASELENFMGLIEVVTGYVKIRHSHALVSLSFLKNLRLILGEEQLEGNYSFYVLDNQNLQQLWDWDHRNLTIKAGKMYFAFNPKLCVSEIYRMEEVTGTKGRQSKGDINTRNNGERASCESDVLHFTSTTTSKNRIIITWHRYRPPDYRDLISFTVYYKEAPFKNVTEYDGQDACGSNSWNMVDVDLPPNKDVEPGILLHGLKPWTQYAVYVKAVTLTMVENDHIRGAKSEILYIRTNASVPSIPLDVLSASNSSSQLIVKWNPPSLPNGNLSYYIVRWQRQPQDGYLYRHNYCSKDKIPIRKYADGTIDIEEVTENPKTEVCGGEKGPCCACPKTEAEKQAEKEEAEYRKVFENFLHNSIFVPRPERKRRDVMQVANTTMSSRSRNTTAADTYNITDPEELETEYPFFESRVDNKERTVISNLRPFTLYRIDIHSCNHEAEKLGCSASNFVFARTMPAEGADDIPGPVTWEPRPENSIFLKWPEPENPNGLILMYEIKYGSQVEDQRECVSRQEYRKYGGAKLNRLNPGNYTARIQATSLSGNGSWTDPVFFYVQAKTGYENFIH
Briefly: ELISA, IGF1R-ECD-His coated, HRP-anti-hFc. (ELISA stands for enzyme-linked immunosorbent assay.)

For another experiment, the target named is T2, PDL1-ECD-His蛋白 (UniProt Q9NZQ7 19-238).
T2 construct: extracellular domain; Expressed in HEK-293E cells; also called PD-L1抗原; PDL1抗原
T2 sequence (Q9NZQ7 other isoform, or with tags, fused parts or gaps): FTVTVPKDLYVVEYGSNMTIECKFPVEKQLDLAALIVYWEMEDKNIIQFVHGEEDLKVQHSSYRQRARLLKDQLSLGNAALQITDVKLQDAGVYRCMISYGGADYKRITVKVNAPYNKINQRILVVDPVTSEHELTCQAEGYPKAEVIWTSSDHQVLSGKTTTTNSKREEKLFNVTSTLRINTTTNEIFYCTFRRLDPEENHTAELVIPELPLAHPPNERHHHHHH
Briefly: ELISA, PDL1-ECD-His coated, HRP goat anti-human Fc.

Experiment [3] has as its target T1, IGF1R-ECD-His蛋白. Briefly: sandwich ELISA: PDL1-ECD-hFc coated, antibody, then IGF1R-ECD-His, HRP-anti-His.
For another experiment, the target named is T3, PDL1-ECD-hFc蛋白 (UniProt Q9NZQ7 19-238).
T3 construct: extracellular domain; PDL1-ECD-His with the C-terminal tag changed to hFc; also called PDL1抗原; not shown: hFc tag at the C-terminus in place of the His tag
T3 sequence (Q9NZQ7 19-238): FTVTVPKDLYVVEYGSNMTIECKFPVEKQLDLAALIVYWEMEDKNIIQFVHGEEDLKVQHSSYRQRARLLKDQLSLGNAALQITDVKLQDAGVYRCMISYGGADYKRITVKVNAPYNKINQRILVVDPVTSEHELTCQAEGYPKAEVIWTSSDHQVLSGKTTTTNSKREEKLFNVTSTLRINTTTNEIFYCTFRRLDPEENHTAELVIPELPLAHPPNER
The description is as above.

Sequence of PD-L1 on PD-L1 aAPC/CHO-K1 cells (Q9NZQ7 19-290): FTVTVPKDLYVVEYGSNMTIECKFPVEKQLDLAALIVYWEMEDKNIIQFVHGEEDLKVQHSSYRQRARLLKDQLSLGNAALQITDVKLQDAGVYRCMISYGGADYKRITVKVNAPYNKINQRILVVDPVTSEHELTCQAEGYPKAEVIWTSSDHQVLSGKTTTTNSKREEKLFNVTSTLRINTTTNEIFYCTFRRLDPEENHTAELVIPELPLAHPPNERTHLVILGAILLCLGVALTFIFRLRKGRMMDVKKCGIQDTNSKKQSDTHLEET
Sequence of IGF1R on BxPC3 cells (P08069 31-1367): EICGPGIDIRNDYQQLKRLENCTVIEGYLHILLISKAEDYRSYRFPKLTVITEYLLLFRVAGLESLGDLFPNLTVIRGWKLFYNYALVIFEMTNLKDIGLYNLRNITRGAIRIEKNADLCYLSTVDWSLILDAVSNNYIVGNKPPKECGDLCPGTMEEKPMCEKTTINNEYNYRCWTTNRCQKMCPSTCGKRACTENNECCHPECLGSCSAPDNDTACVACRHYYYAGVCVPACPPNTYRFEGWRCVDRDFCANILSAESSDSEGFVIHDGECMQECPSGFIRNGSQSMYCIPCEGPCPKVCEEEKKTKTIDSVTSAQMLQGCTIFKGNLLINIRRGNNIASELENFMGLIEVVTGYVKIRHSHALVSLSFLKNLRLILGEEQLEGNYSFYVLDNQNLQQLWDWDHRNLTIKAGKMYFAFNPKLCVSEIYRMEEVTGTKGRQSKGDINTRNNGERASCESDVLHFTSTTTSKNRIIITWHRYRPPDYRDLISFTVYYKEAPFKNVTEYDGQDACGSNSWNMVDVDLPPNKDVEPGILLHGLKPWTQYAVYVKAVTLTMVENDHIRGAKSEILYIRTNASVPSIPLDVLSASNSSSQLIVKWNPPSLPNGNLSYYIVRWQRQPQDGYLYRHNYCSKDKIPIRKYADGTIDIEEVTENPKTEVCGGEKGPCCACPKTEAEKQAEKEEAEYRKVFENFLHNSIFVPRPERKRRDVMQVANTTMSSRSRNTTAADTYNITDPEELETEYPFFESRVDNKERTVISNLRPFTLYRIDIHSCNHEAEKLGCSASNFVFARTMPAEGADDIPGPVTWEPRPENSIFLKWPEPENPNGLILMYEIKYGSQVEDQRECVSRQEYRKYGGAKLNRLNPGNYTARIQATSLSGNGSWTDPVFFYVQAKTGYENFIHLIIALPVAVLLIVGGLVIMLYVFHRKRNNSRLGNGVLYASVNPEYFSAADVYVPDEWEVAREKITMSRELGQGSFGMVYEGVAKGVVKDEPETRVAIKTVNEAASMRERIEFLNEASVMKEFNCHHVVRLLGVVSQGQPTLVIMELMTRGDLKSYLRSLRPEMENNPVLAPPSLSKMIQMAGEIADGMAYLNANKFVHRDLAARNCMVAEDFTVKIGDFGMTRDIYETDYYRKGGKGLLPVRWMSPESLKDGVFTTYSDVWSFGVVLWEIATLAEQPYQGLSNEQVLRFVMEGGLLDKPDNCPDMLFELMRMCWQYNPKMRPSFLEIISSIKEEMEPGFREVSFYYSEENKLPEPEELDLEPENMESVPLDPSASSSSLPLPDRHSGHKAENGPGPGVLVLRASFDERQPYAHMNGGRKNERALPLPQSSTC

B1: 抗PDL1×IGF1R双特异性抗体 D31-5 (bispecific antibody, human IgG1, kappa)
heavy: not shown
light: EIVLTQSPDFLSVTPKEKVTITCRASQSIGTTIHWYQQKPDQSPKLLIKYASQSFSGVPSRFSGSGSGTDFTLTINSVEAEDAATYYCQQSNSWPLTFGAGTKLEIKRTVAAPSVFIFPPSDEQLKSGTASVVCLLNNFYPREAKVQWKVDNALQSGNSQESVTEQDSKDSTYSLSSTLTLSKADYEKHKVYACEVTHQGLSSPVTKSFNRGEC
notes: Anti-PDL1 IgG1 with A12 scFv1 (VL-L1-VH) at the C-terminus of each heavy chain
As for B1, the “EC50, PD-1/PD-L1 Blockade Bioassay (luciferase reporter)” value (shortened to “EC50, PD-1/PD-L1 Blockade Bioassay”) in experiment [1] came to 401 pM. For the same molecule, the “IC50, inhibition of BxPC3 proliferation with IGF-1 100 ng/mL (CCK8)” value (from here on “IC50, inhibition of BxPC3 proliferation”) in the experiment with IGF1R on BxPC3 cells came out at 39600 pM. For the same molecule, the results for the EC50 in the experiment with IGF1R-ECD-His蛋白 [2] and with PDL1-ECD-His蛋白 were 137 pM and 85.8 pM, respectively.

B2: 抗PDL1×IGF1R双特异性抗体 D31-8 (bispecific antibody, human IgG1, kappa)
heavy: not shown
light: EIVLTQSPDFLSVTPKEKVTITCRASQSIGTTIHWYQQKPDQSPKLLIKYASQSFSGVPSRFSGSGSGTDFTLTINSVEAEDAATYYCQQSNSWPLTFGAGTKLEIKRTVAAPSVFIFPPSDEQLKSGTASVVCLLNNFYPREAKVQWKVDNALQSGNSQESVTEQDSKDSTYSLSSTLTLSKADYEKHKVYACEVTHQGLSSPVTKSFNRGEC
notes: Anti-PDL1 IgG1 with A12 scFv1 at the N-terminus of each heavy chain
As to B2, the “EC50, PD-1/PD-L1 Blockade Bioassay” value in experiment [1] is 390 pM. For the same molecule, in the experiment with IGF1R on BxPC3 cells, the “IC50, inhibition of BxPC3 proliferation” value stood at 5620 pM. The EC50 (usually the concentration that produces a half-maximal response) with IGF1R-ECD-His蛋白 [2] came out at 46.5 pM; in the experiment with PDL1-ECD-His蛋白, 57.2 pM.

B3: 抗PDL1×IGF1R双特异性抗体 D31-6 (bispecific antibody, human IgG1, kappa)
heavy: not shown
light: EIVLTQSPDFLSVTPKEKVTITCRASQSIGTTIHWYQQKPDQSPKLLIKYASQSFSGVPSRFSGSGSGTDFTLTINSVEAEDAATYYCQQSNSWPLTFGAGTKLEIKRTVAAPSVFIFPPSDEQLKSGTASVVCLLNNFYPREAKVQWKVDNALQSGNSQESVTEQDSKDSTYSLSSTLTLSKADYEKHKVYACEVTHQGLSSPVTKSFNRGEC
notes: Anti-PDL1 IgG1 with A12 scFv2 (VH-L1-VL) at the C-terminus of each heavy chain
In the case of B3, the “EC50, PD-1/PD-L1 Blockade Bioassay” value in experiment [1] was found to be 336 pM. Also, the “IC50, inhibition of BxPC3 proliferation” value with IGF1R on BxPC3 cells was found to be 67000 pM. In addition, the values for the EC50 with IGF1R-ECD-His蛋白 [2] and in the experiment with PDL1-ECD-His蛋白 were 96.1 pM and 79 pM, respectively.

B4: 抗PDL1×IGF1R双特异性抗体 D31-7 (bispecific antibody, human IgG1, kappa)
heavy: not shown
light: EIVLTQSPDFLSVTPKEKVTITCRASQSIGTTIHWYQQKPDQSPKLLIKYASQSFSGVPSRFSGSGSGTDFTLTINSVEAEDAATYYCQQSNSWPLTFGAGTKLEIKRTVAAPSVFIFPPSDEQLKSGTASVVCLLNNFYPREAKVQWKVDNALQSGNSQESVTEQDSKDSTYSLSSTLTLSKADYEKHKVYACEVTHQGLSSPVTKSFNRGEC
notes: Anti-PDL1 IgG1 with A12 scFv2 at the N-terminus of each heavy chain
In the case of B4, the “EC50, PD-1/PD-L1 Blockade Bioassay” value in experiment [1] amounted to 496 pM. Further, the “IC50, inhibition of BxPC3 proliferation” value in the experiment with IGF1R on BxPC3 cells was found to be 20500 pM. The EC50 with IGF1R-ECD-His蛋白 [2] amounted to 64.8 pM; with PDL1-ECD-His蛋白 it was 74.9 pM.

B5: 抗PDL1×IGF1R双特异性抗体 D31-1 (bispecific antibody, human IgG1, lambda)
heavy: not shown
light: SSELTQDPAVSVALGQTVRITCQGDSLRSYYATWYQQKPGQAPILVIYGENKRPSGIPDRFSGSSSGNTASLTITGAQAEDEADYYCKSRDGSGQHLVFGGGTKLTVLGQPKAAPSVTLFPPSSEELQANKATLVCLISDFYPGAVTVAWKADSSPVKAGVETTTPSKQSNNKYAASSYLSLTPEQWKSHRSYSCQVTHEGSTVEKTVAPAECS
notes: A12 IgG1 with anti-PDL1 scFv1 (VL-L1-VH) at the C-terminus of each heavy chain
For B5, the “EC50, PD-1/PD-L1 Blockade Bioassay” value in experiment [1] came to 2980 pM. In addition, the “IC50, inhibition of BxPC3 proliferation” value with IGF1R on BxPC3 cells worked out at 1960 pM. Moreover, the half-maximal effective concentration (EC50) in the experiment with IGF1R-ECD-His蛋白 [2] was found to be 193 pM; with PDL1-ECD-His蛋白, 391 pM.

B6: 抗PDL1×IGF1R双特异性抗体 D31-3 (bispecific antibody, human IgG1, lambda)
heavy: not shown
light: SSELTQDPAVSVALGQTVRITCQGDSLRSYYATWYQQKPGQAPILVIYGENKRPSGIPDRFSGSSSGNTASLTITGAQAEDEADYYCKSRDGSGQHLVFGGGTKLTVLGQPKAAPSVTLFPPSSEELQANKATLVCLISDFYPGAVTVAWKADSSPVKAGVETTTPSKQSNNKYAASSYLSLTPEQWKSHRSYSCQVTHEGSTVEKTVAPAECS
notes: A12 IgG1 with anti-PDL1 scFv2 at the N-terminus of each heavy chain
For B6, the “EC50, PD-1/PD-L1 Blockade Bioassay” value in experiment [1] turned out to be 1830 pM. The “IC50, inhibition of BxPC3 proliferation” value with IGF1R on BxPC3 cells worked out at 47700 pM. Besides, the EC50 came out at 315 pM with IGF1R-ECD-His蛋白 [2] and 301 pM with PDL1-ECD-His蛋白.

B7: 抗PDL1×IGF1R双特异性抗体 D31-4 (bispecific antibody, human IgG1, lambda)
heavy: not shown
light: SSELTQDPAVSVALGQTVRITCQGDSLRSYYATWYQQKPGQAPILVIYGENKRPSGIPDRFSGSSSGNTASLTITGAQAEDEADYYCKSRDGSGQHLVFGGGTKLTVLGQPKAAPSVTLFPPSSEELQANKATLVCLISDFYPGAVTVAWKADSSPVKAGVETTTPSKQSNNKYAASSYLSLTPEQWKSHRSYSCQVTHEGSTVEKTVAPAECS
notes: A12 IgG1 with anti-PDL1 scFv1 at the N-terminus of each heavy chain
For B7, the “EC50, PD-1/PD-L1 Blockade Bioassay” value in experiment [1] was 1310 pM. Moreover, in the experiment with IGF1R on BxPC3 cells, the “IC50, inhibition of BxPC3 proliferation” value was found to be 16500 pM. Besides, the EC50 with IGF1R-ECD-His蛋白 [2] and with PDL1-ECD-His蛋白 was 249 pM in each case.

B8: 抗PDL1×IGF1R双特异性抗体 D31-2 (bispecific antibody, human IgG1, lambda)
heavy: not shown
light: SSELTQDPAVSVALGQTVRITCQGDSLRSYYATWYQQKPGQAPILVIYGENKRPSGIPDRFSGSSSGNTASLTITGAQAEDEADYYCKSRDGSGQHLVFGGGTKLTVLGQPKAAPSVTLFPPSSEELQANKATLVCLISDFYPGAVTVAWKADSSPVKAGVETTTPSKQSNNKYAASSYLSLTPEQWKSHRSYSCQVTHEGSTVEKTVAPAECS
notes: A12 IgG1 with anti-PDL1 scFv2 (VH-L1-VL) at the C-terminus of each heavy chain
For B8, in experiment [1], the “EC50, PD-1/PD-L1 Blockade Bioassay” value stood at 1750 pM. Besides, the “IC50, inhibition of BxPC3 proliferation” value with IGF1R on BxPC3 cells is 2510 pM. In addition, the EC50 amounted to 185 pM with IGF1R-ECD-His蛋白 [2] and 296 pM with PDL1-ECD-His蛋白.

B9: 抗PD-L1单抗(anti-PDL1 mAb) (antibody, human IgG1, kappa, V domains shown)
VH: QVQLQQSGGGLVKPSQSLSLTCTVSGFSLTSYGVHWVRQPPGKGLEWIGLIWSGGGTDYNPSLKSRLTISRDTSKNQVSFKISSLTAADTAVYYCARQLGLRAMDYWGQGTSVTVSS
VL: EIVLTQSPDFLSVTPKEKVTITCRASQSIGTTIHWYQQKPDQSPKLLIKYASQSFSGVPSRFSGSGSGTDFTLTINSVEAEDAATYYCQQSNSWPLTFGAGTKLEIKR
notes: also called 抗人PD-L1单抗
As to B9, in experiment [1], the “EC50, PD-1/PD-L1 Blockade Bioassay” value was 364 pM and 901 pM. The EC50 in the experiment with PDL1-ECD-His蛋白 is 83.6 pM and 146 pM. For the same molecule, the binding result with IGF1R-ECD-His蛋白 [3] is given as “no binding (tested: 起始浓度为30nM)”.

B10: 抗IGF1R单抗 A12 (antibody, human IgG1, lambda, V domains shown)
VH: EVQLVQSGAEVKKPGSSVKVSCKASGGTFSSYAISWVRQAPGQGLEWMGGIIPIFGTANYAQKFQGRVTITADKSTSTAYMELSSLRSEDTAVYYCARAPLRFLEWSTQDHYYYYYMDVWGKGTTVTVSS
VL: SSELTQDPAVSVALGQTVRITCQGDSLRSYYATWYQQKPGQAPILVIYGENKRPSGIPDRFSGSSSGNTASLTITGAQAEDEADYYCKSRDGSGQHLVFGGGTKLTVLG
notes: also called anti-IGF1RmAb; 抗IGF1R抗体A12
On to B10, for which the “IC50, inhibition of BxPC3 proliferation” value with IGF1R on BxPC3 cells is 6770 pM and 14000 pM. Further, in the experiment with IGF1R-ECD-His蛋白 [2], the EC50 was 157 pM and 67.6 pM. Moreover, the binding result with PDL1-ECD-hFc蛋白 is “no binding (tested: 起始浓度为30nM)”.
